Where a chain is given by its changes, count along the chain named.
B1: IL-7Rα_7 VHH (VHH)
VHH: QVQLVESGGGLVQPGGSLRLSCAASGFTFSNYAMSWYRQAPGKERELVASISVFGGGTNYADSVKGRFTISRDNAKNTVYLQMNSLKPEDSAVYYCNKRRYDDYWGQGTQVTVSS
notes: soluble VHH, detected with anti-His antibody
B2: IL-7Rα_8 VHH (VHH)
VHH: QVQLVESGGGLVQPGGSLRLSCAASGFTISSWSMKWVRQAPGKGPEWVSYISPGGGSLDYLDSVKGRFTISRDNAKNTVYLQMSNLKSEDTALYWCATGTGPTRGQGTQVTVSS
notes: as for B1
B3: IL-7Rα_9 VHH (VHH)
VHH: B2 VHH with S31T, G56T, L61Q, S84N, P102E
notes: as for B1
B4: IL-7Rα_11 VHH (VHH)
VHH: B2 VHH with A23E, L61H, D62H, K76R, K87Q, P102E
notes: as for B1
B5: IL-7Rα_12 VHH (VHH)
VHH: B2 VHH with W32R, S57T, L58V, L61Q, Q106R
notes: as for B1
B6: IL-7Rα_15 VHH (VHH)
VHH: B2 VHH with L61H, D62H, K76R, K87Q, P102E
notes: as for B1
B7: IL-7Rα_2 VHH (VHH)
VHH: QVQLVESGGGLVQPGGSLRLSCEVSGIRFSLRNMHWYRQASGRQREWVATITAGGVTGYRDSVKGRFTISRDNAKNTVDLQMNGLQLEDTAVYYCNHGDTAYWGQGTQVTVSS
notes: as for B1
B8: IL-7Rα_13 VHH (VHH)
VHH: B7 VHH with Q13R, S21A, E23A, V24A
notes: as for B1
B9: IL-7Rα_1 VHH (VHH)
VHH: QVQLVESGGGLVQPGGSLRLSCAASGFTFSQRIMSWYRQAPGKERELVASISPFGDGTRYADSVKGRFTISRDNARNQLYLQMNTLKPEDTAVYYCNKRNLEISDDWGQGTQVTVSS
notes: as for B1
B10: IL-7Rα_5 VHH (VHH)
VHH: B9 VHH with R45H, T85S, K87E, P88F, E102D, I103V
notes: as for B1
B11: IL-7Rα_14 VHH (VHH)
VHH: B9 VHH with I51V, R76K, N77S, T85N, P88F, D106A
notes: as for B1
B12: IL-7Rα_4 VHH (VHH)
VHH: QVQLVESGGGLVQPGGSLRLSCTTSGFTFTTYAMKWVRQAPGKGLEWVAFISPAGGITDYADSVKGRFTISRDNAKETLYLRMDSLKPEDTAVYYCARGDSDTNNNRGQGTQVTVSS
notes: as for B1

What follows are binders tested against T1, extracellular domain (ECD) of human IL-7Rα fused to biotinylated Fc knob-into-hole (P1AI1009) (human, UniProt P0DOX5 223-448 = IgG part, biotinylated at C-terminal AviTag) (assay: ELISA, soluble VHH supernatants on neutravidin plates with biotinylated IL-7Rα-Fc versus biotinylated Fc, anti-His-HRP).
T1 construct: also called human IL-7Rα-Fc; human IL-7Rα antigen
Method: Round 3 and round 4 enrichment libraries were screened for target specificity vs Fc specificity by ELISA. Individual VHH clones were expressed in 1 ml E. coli cultures in a 96-well plate and supernatants containing soluble VHH were screened for specificity by ELISA. Supernatants were transferred to neutravidin 96-well plates coated with biotinylated Fc (P1AE6073) or target Fc-tagged biotinylated antigen (P1AI1009). Following incubation for 1 hour at 20° C., plates were washed 3 times with PBST and 3 times with PBS. HRP-conjugated anti-His antibody (Sigma, Cat. No: A7058) was added to wells at 1:2000 dilution and plates were incubated for 1 hour at 20° C. Plates were washed 3 times with PBST followed by 3 washes with PBS. Plates were developed by adding 1-Step Ultra TMB-ELISA substrate (Thermo Fisher Scientific, Cat. No: 34028) and reactions were quenched with sulfuric acid. Absorbance at 450 nm was measured using a Tecan infinite M1000 Pro and reference absorbance values were measured at 650 nm. Reference-subtracted absorbance values at 450 nm were represented as stacked bar charts for round 3 library 1 and library 2 (FIG. 40A and B, respectively) and round 4 library 1 and library 2 (FIG. 40C and D, respectively). […] 16 target-specific VHH were selected and subsequently cloned into bispecific heavy chain antibody formats.

| Binder | binding result |
| --- | --- |
| B1 | binds |
| B2 | binds |
| B3 | binds |
| B4 | binds |
| B5 | binds |
| B6 | binds |
| B7 | binds |
| B8 | binds |
| B9 | binds |
| B10 | binds |
| B11 | binds |
| B12 | binds |
